The results in this text go back to patent publication US20240417469A1 (CONCEPT TO MEDICINE BIOTECH, published 2024).

Test [1] deals with human CD3 on cells (human PBMC; Jurkat TCR/CD3 NFAT reporter cells) (human, UniProt P07766 23-207; P04234 22-171; P09693 23-182). As to the kind of experiment: cell-based or functional assay.
For another test, the target named is T1, human CD3 protein (human, UniProt P07766 23-126; P04234 22-105).
T1 construct: ELISA coating protein; also called Human CD3D & CD3E Heterodimer Protein
T1 sequence (P07766 23-126 limits assumed, chain 1 of 2): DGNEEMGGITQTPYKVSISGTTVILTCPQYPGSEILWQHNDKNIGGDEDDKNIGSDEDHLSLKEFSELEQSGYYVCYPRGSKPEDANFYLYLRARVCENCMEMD
T1 sequence (P04234 22-105 limits assumed, chain 2 of 2): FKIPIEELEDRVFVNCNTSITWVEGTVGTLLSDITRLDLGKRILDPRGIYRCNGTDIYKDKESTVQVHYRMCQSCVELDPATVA
Description: ELISA, plate-coated CD3.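 Further: binding to plate-immobilized human CD3 protein, bound antibody detected with peroxidase-labelled anti-human IgG and TMB, read as absorbance at 450 nm.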

The target in test [2] is T2, recombinant CD3D&E protein (human CD3-his tag) (human, UniProt P04234 22-105; P07766 23-126, limits assumed).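 Further: humanized antibodies on a Protein A chip, human CD3-his analyte flowed over in serial dilutions for 3 min, dissociation tracked 120–360 s on a Biacore T200.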
T2 construct: Analyte in Biacore; also called CD3D&E-His; CD3d&ε-His
T2 sequence (P04234 22-105 limits assumed, chain 1 of 2): as the sequence (P04234 22-105 limits assumed, chain 2 of 2) above
T2 sequence (P07766 23-126 limits assumed, chain 2 of 2): as the sequence (P07766 23-126 limits assumed, chain 1 of 2) above
Description: SPR Biacore, Ab captured on Protein A. (SPR reads the build-up and loss of mass on a sensor chip optically.)

Chain of human CD3 on cells (human PBMC; Jurkat TCR/CD3 NFAT reporter cells) (P07766 23-207, chain 1 of 3): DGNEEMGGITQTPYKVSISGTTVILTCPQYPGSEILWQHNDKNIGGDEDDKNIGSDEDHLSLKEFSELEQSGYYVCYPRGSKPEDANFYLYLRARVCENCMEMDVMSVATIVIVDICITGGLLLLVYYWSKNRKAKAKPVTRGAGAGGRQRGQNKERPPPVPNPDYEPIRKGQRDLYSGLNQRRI
Chain of human CD3 on cells (human PBMC; Jurkat TCR/CD3 NFAT reporter cells) (P04234 22-171, chain 2 of 3): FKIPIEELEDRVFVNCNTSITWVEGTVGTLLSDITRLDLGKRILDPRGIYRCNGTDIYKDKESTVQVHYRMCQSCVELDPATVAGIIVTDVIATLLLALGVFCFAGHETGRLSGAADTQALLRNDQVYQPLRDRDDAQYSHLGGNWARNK
Chain of human CD3 on cells (human PBMC; Jurkat TCR/CD3 NFAT reporter cells) (P09693 23-182, chain 3 of 3): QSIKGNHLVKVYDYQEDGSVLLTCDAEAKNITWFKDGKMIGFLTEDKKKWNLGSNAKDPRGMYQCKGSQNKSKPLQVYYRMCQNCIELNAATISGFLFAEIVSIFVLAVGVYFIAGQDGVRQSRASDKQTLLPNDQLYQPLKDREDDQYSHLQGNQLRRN

B1: Hu192A7B9-16 (antibody, V domains shown)
VH: EVQLQESGPGLVKPSETLSLTCTVSGGSISSYNVHWVRQPPGKGLEWMGRMRYNGDTSYNSALKSRLTISRDTSKNQFSLKLSSVTAADTAVYYCTRGPRGGYYSALFDYWGQGTMVTVSS
VL: DIQMTQSPSSLSASVGDRVTITCKASQNINRYLNWYQQKPGKAPKLLISIANSLQTGIPSRFSGSGSGTDFTLTISSLQPEDFATYYCLQHNSWYTFGQGTKLEIK
notes: humanized mAb
Usually EC50 stands for the concentration that produces a half-maximal response. The Kd is the concentration at which binding is half-saturated. What is called koff is the rate constant with which the complex falls apart. Broadly, the kon is the second-order rate constant of association. As to B1, the “CD3-NFAT Activity by CD3 mAb” value in test [1] was over 50 % SP34. In the test with human CD3 protein, this molecule showed an EC50 of 0.00746 µg/mL. Moreover, in test [2], the Kd was 146 nM, the koff turned out to be 0.0143 s⁻¹ and the kon was 97600 M⁻¹ s⁻¹.

B2: Hu192A7B9-4 (antibody, V domains shown)
VH: EVQLQESGPGLVKPSETLSLTCTVSGGSISSYNVHWVRQPPGKGLEWMGRMRYNGDTSYNSALKSRLTISRDTSKNQFSLKLSSVTAADTAVYYCTRGPRGGYYSALFDYWGQGTMVTVSS
VL: DIQMTQSPSSLSASVGDRVTITCKASQNINRYLNWYQQKPGKAPKLLIYIANSLQTGVPSRFSGSGSGTDFTLTISSLQPEDFATYYCLQHNSWYTFGQGTKLEIK
notes: humanized mAb
As to B2, the “CD3-NFAT Activity by CD3 mAb” value in test [1] is at most 50 % SP34. It took 0.0228 µg/mL to reach a half-maximal effect with human CD3 protein (EC50).

B3: Hu192A7B9-1 (antibody, V domains shown)
VH: EVQLQESGPGLVKPSETLSLTCTVSGGSISSYNVHWIRQPPGKGLEWIGRMRYNGDTSYNSALKSRVTISVDTSKNQFSLKLSSVTAADTAVYYCARGPRGGYYSALFDYWGQGTMVTVSS
VL: DIQMTQSPSSLSASVGDRVTITCKASQNINRYLNWYQQKPGKAPKLLIYIANSLQTGVPSRFSGSGSGTDFTLTISSLQPEDFATYYCLQHNSWYTFGQGTKLEIK
notes: humanized mAb
For the molecule B3, the “CD3-NFAT Activity by CD3 mAb” value in test [1] was at most 50 % SP34. The molecule also showed an EC50 with human CD3 protein of 0.148 µg/mL.

B4: Hu192A7B9-2 (antibody, V domains shown)
VH: EVQLQESGPGLVKPSETLSLTCTVSGGSISSYNVHWVRQPPGKGLEWIGRMRYNGDTSYNSALKSRVTISRDTSKNQFSLKLSSVTAADTAVYYCARGPRGGYYSALFDYWGQGTMVTVSS
VL: DIQMTQSPSSLSASVGDRVTITCKASQNINRYLNWYQQKPGKAPKLLIYIANSLQTGVPSRFSGSGSGTDFTLTISSLQPEDFATYYCLQHNSWYTFGQGTKLEIK
notes: humanized mAb
Take B4: the “CD3-NFAT Activity by CD3 mAb” value in test [1] is at most 50 % SP34. The same molecule registered a concentration for a half-maximal effect (EC50) with human CD3 protein of 0.194 µg/mL.

B5: Hu192A7B9-6 (antibody, V domains shown)
VH: EVQLQESGPGLVKPSETLSLTCTVSGFSLTSYNVHWVRQPPGKGLEWMGRMRYNGDTSYNSALKSRLTISRDTSKNQVSLKLSSVTAADTAVYYCTRGPRGGYYSALFDYWGQGTMVTVSS
VL: DIQMTQSPSSLSASVGDRVTITCKASQNINRYLNWYQQKPGKAPKLLIYIANSLQTGVPSRFSGSGSGTDFTLTISSLQPEDFATYYCLQHNSWYTFGQGTKLEIK
notes: humanized mAb
As to B5, in test [1], the “CD3-NFAT Activity by CD3 mAb” value is over 50 % SP34. In the test with human CD3 protein, this molecule registered an EC50 of 0.00859 µg/mL. In addition, in test [2], the Kd was 283 nM, the dissociation rate constant (koff) turned out to be 0.024 s⁻¹ and the kon worked out at 84900 M⁻¹ s⁻¹.

B6: Hu192A7B9-3 (antibody, V domains shown)
VH: EVQLQESGPGLVKPSETLSLTCTVSGGSISSYNVHWVRQPPGKGLEWMGRMRYNGDTSYNSALKSRLTISRDTSKNQFSLKLSSVTAADTAVYYCARGPRGGYYSALFDYWGQGTMVTVSS
VL: DIQMTQSPSSLSASVGDRVTITCKASQNINRYLNWYQQKPGKAPKLLIYIANSLQTGVPSRFSGSGSGTDFTLTISSLQPEDFATYYCLQHNSWYTFGQGTKLEIK
notes: humanized mAb
For the molecule B6, in test [1], the “CD3-NFAT Activity by CD3 mAb” value is at most 50 % SP34. This molecule also returned an EC50 with human CD3 protein of 0.0862 µg/mL.

B7: Hu192A7B9-5 (antibody, V domains shown)
VH: EVQLQESGPGLVKPSETLSLTCTVSGFSISSYNVHWVRQPPGKGLEWMGRMRYNGDTSYNSALKSRLTISRDTSKNQVSLKLSSVTAADTAVYYCTRGPRGGYYSALFDYWGQGTMVTVSS
VL: DIQMTQSPSSLSASVGDRVTITCKASQNINRYLNWYQQKPGKAPKLLIYIANSLQTGVPSRFSGSGSGTDFTLTISSLQPEDFATYYCLQHNSWYTFGQGTKLEIK
notes: humanized mAb
B7: the “CD3-NFAT Activity by CD3 mAb” value in test [1] is over 50 % SP34. Moreover, in the test with human CD3 protein, the EC50 came out at 0.00552 µg/mL. In test [2], the Kd is 103 nM, the koff is 0.0119 s⁻¹ and the kon came out at 116000 M⁻¹ s⁻¹.
